This data set can be described thus: yeast display, Sf9 membrane polyspecificity reagent, FACS + sequencing; frameworks hold sequencing errors. In outline:
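Sorting gates, low and high (top ~1%), were placed on anti-HA fluorescence to track expression and on streptavidin fluorescence to track reagent binding. A clone's polyreactivity label is taken from the gate it came out of. The reagent was 10% biotinylated, detergent-solubilized Sf9 membrane, applied for 1 hour at 4 °C to galactose-induced yeast display cells.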
As to “QVQLVESGGGLVQAGGSLRLSCAASGLTFPFYTMGWYRQAPGKERELVAAISRRGGSTYYADSVKGRFTISRDNAKNTDYLQMNSMKPVDTAVYYCAADKYSWYDYWGQGTEVTVSS”, the “polyreactivity (PSR sort gate)” value is recorded as “low polyreactivity”.

For the sequence “QVQLVESGGGLVQAGGSLRLSCAASGLTFPHYAMGWYRQAPGKEREFVAVISWSGGSTSYADSVKGRFTISRDNAKNTVYLQMNSLKPEDTAVYYCAAVYRTREWSYYYWGQGTQVTVSS”, the “polyreactivity (PSR sort gate)” value is on record as “high polyreactivity”.

As for “QVQLVESGGGLVQAGGSLRLSCAASGLTFPQYVMGWYRQAPGKERELVASISRSGGNTYYADSVKGRFTISRDNAKNTVYLQMNSLKPEDTAVYYCAAEYIFHYYDIFDYWGQGTQVTVSS”, the “polyreactivity (PSR sort gate)” value is on record as “high polyreactivity”.

Turning to “QVQLVESGGGLVQAGGSLRLSCAASGLTFPSNAMGWYRQAPGKERELVAAISKRGGRKYYADSVKGRFTISRDNAKNTVYLQMNSLKPEDTAVYYCATPYAYPGTVQYARYNYWGQGTQVTVSS”, the “polyreactivity (PSR sort gate)” value is “high polyreactivity”.

As to “QVQLVESGGGLVQAGGSLRLSCAASGLTFPSNAMGWYRQAPGKERELVAAISKRGGRTYYADSVKGRFTISRDNAKNTVYLQINSLKPEDTAVYYCAAVPWYVSHDFDYWGQGTQVTVSS”, the “polyreactivity (PSR sort gate)” value is listed as “high polyreactivity”.

For “QVQLVESGGGLVQAGGSLRLSCAASGLTFPYNAMGWYRQAPGKERELVAAISNGGGTYYADSVKGRFTISRDNAKNPVYLQMNSLKPEDTAVYYCAVDEYSRDYWRYYYWGQGTQVTVSS”, the “polyreactivity (PSR sort gate)” value is reported as “low polyreactivity”.

In the case of “QVQLVESGGGLVQAGGSLRLSCAASGLTFPYYAMGWYRQAPGKERELVASISWSGASTYYADSVKGRSTISRDYAKNTVYLQMNSLKPEDTAVYYCNAGFYGSYDYWGQGTQVTVSS”, the “polyreactivity (PSR sort gate)” value is “high polyreactivity”.

Take “QVQLVESGGGLVQAGGSLRLSCAASGLTFQRYAMGWYRQAHGKERELVAAISYRGSRTYYADSVKGRFTISRDNAKNTVYLQMNSMKPEDSAVYYCNKVRTGYGVTYLVGYWGQGTHVTVSS”: the “polyreactivity (PSR sort gate)” value is recorded as “high polyreactivity”.

As to “QVQLVESGGGLVQAGGSLRLSCAASGLTFQSYAMGRYRQAPVKERELVATISNGSSTYYADSVKGRFTFSRDNAKNTVYLQMNSLKPEDTAVYFCAKDYYYSRNPLYGHDYWGHGTQVTVSS”, the “polyreactivity (PSR sort gate)” value is “low polyreactivity”.

As to “QVQLVESGGGLVQAGGSLRLSCAASGLTFQSYAMGWYRQAPGKEMELVATIYNGSSTYYAVSVKGRFTISRDNAKNTDYLQMNSLKPEDTAVYYCAKDYYYSRNALYGHDYWGQVTQVTVSS”, the “polyreactivity (PSR sort gate)” value was “low polyreactivity”.

For the sequence “QVQLVESGGGLVQAGGSLRLSCAASGLTFQTNAMGWYRQAPGKERELVAAISRRGSSTYYADSVKGRFTISRDNAKNTVYLQMNSLKPEDTAVYYCNAVRYLFIYPRYDYWGQGTQVTVAS”, the “polyreactivity (PSR sort gate)” value is on record as “high polyreactivity”.

For the sequence “QVQLVESGGGLVQAGGSLRLSCAASGLTFRAYAMGWYRQAPGKERELVAAITWSGGSTYYADSVKGRFTISRDNAKNTVYLQMNSLKPEDTAVYYCTAVLRAGYWYYSHGYDYWGQGTQVTVSS”, the “polyreactivity (PSR sort gate)” value is recorded as “low polyreactivity”.

On to “QVQLVESGGGLVQAGGSLRLSCAASGLTFRKYAMGWYRQAPGKERELVAAITRGGSTNYADSVKGRFTISRDNAKNTVYLQMNSLKPEDTAVYYCNTRPYRPFDYWGQGTQVTVSS”, for which the “polyreactivity (PSR sort gate)” value is listed as “high polyreactivity”.

“QVQLVESGGGLVQAGGSLRLSCAASGLTFRLNAMGWYRQAPGKERELVAAITRGGRTNYADSVKGRFTISRDNAKNTVYLQMNSLKPEDTAVYYCAARYVERHTDYYYWGQGTQVTVSS”: the “polyreactivity (PSR sort gate)” value is recorded as “low polyreactivity”.

As to “QVQLVESGGGLVQAGGSLRLSCAASGLTFRRNAMGWYRQAPGKERELVAAISSGGVRTYYADSVKGRFTISRDNAKNTVYLQMNSLKPEDTAVYYCAAEDYAQRYTHYESWGQGTQVTVSS”, the “polyreactivity (PSR sort gate)” value is “low polyreactivity”.

With “QVQLVESGGGLVQAGGSLRLSCAASGLTFRYYAMGWYRQAPGKERELVAAISSRGASTYYADSVKGRFTISRDNAKNTVYLQMNSLKPEDTAVYYCAVRTYVYHWSFSSLPYDYWGQGTQVTVSS”, the “polyreactivity (PSR sort gate)” value is “high polyreactivity”.

Take “QVQLVESGGGLVQAGGSLRLSCAASGLTFRYYAMGWYRQAPGKERELVAAISWSGGSTYYADSVKGRFTISRDNAKNTVYLQMNSLKPEDTAVYFCNAELYPQWYDSGQTMEYWGQGTQVTVSS”: the “polyreactivity (PSR sort gate)” value is given as “high polyreactivity”.

“QVQLVESGGGLVQAGGSLRLSCAASGLTFSDNAMGWYRQAPGKEREFVAAITRNGGSTRYADSVKGRFTISRDNAKNTVYLQMNSLKPEDTAVYYCAAVPVGYDSDWGYYYWGQGTQVTVSS”: the “polyreactivity (PSR sort gate)” value is reported as “low polyreactivity”.

For the sequence “QVQLVESGGGLVQAGGSLRLSCAASGLTFSDYAMGWYRQAPGKEREFVAALTRNGGSTRYADSVKGRFTISRDNAKNTVYLQMNSLKPEDTAVYYCNADGWGDRFWSNFRFDYWGQGTQVTVSS”, the “polyreactivity (PSR sort gate)” value is recorded as “low polyreactivity”.

For the sequence “QVQLVESGGGLVQAGGSLRLSCAASGLTFSLYAMGWYRQAPGKERELVAAISSSGSTYYADSVKGRFTISRDNAKNTVYLQMNSLKPEDTAVYYCAADAPWWIDPIAGNYWGQGTQVTVSS”, the “polyreactivity (PSR sort gate)” value is reported as “high polyreactivity”.

With “QVQLVESGGGLVQAGGSLRLSCAASGLTFSRYAKGRYRQAPGKERELVAAISSSGTRTYYADSVKGRFTISRDNAKITVYLQMNSLKPEDTAVYYCAARSGGSGGTYGYWGHGTQVTVSS”, the “polyreactivity (PSR sort gate)” value is listed as “high polyreactivity”.

For the sequence “QVQLVESGGGLVQAGGSLRLSCAASGLTFSRYAMGWYRQAPGTERELVAVISRSGGSTYYADSVKGRFTISRDNAKNTVYLQMNSLIPEDTAVYYCAVRAYIKMDYWGQGTQVTVSS”, the “polyreactivity (PSR sort gate)” value was “high polyreactivity”.

“QVQLVESGGGLVQAGGSLRLSCAASGLTFSTYAMGWYRQAPGKERELVATITYSGSSTYADSVKGRFTIARDNAKNTVYLQMNSLKPEDTAVYFCAAVTYHGNPSEYFPDTVGFYYWGQGTQVTVSS”: the “polyreactivity (PSR sort gate)” value is recorded as “low polyreactivity”.

In the case of “QVQLVESGGGLVQAGGSLRLSCAASGLTFSVYAMGWYRPAPGKERELVAAISGSGGSTYYADSVKGRFTISRDNAKNTVYLQMNSLKPEDTAVYYCAARYDVHYDGMDYWGQGTQVTLSS”, the “polyreactivity (PSR sort gate)” value was “low polyreactivity”.

For the sequence “QVQLVESGGGLVQAGGSLRLSCAASGLTFSYYAMGWYRPAPGKERELVAAITSSGGNTYYADSVKGRFTISRDNEKNTVYLQMNSLKPEETAVYYCNARRYLRGYGYGYWGQGTQVTVSS”, the “polyreactivity (PSR sort gate)” value is given as “high polyreactivity”.

For “QVQLVESGGGLVQAGGSLRLSCAASGLTFSYYAMGWYRQAPGKERELVAVISYSGSSTYYADSVKGRFTISRDNAKNTVYLQMNSLKPEDTAVYYCAAYLYPRGKGAYDFYYWGQGTQVTVSA”, the “polyreactivity (PSR sort gate)” value is reported as “high polyreactivity”.

As to “QVQLVESGGGLVQAGGSLRLSCAASGLTFTDYAMGWNRQAPGKERELVAGIWDGGSTYYADSVNGRFTISRDNPKNTVYLLMNSLKPEDTAVYYCAARYAGGFYYWGQGTQVTVSS”, the “polyreactivity (PSR sort gate)” value was “high polyreactivity”.

On to “QVQLVESGGGLVQAGGSLRLSCAASGLTFTGYAMGWYRQAPGKERELVASISSRGGSTYYADSVKGRFTISRDNAKITVYLQMNSLKPEDTAVYYCNAVYRGYYSGELDYWGQGTQVTVSS”, for which the “polyreactivity (PSR sort gate)” value is reported as “high polyreactivity”.

“QVQLVESGGGLVQAGGSLRLSCAASGLTFTHYAMGWYRQAPGKEMELVAAISSGGRTYYADSVKGRFTISRDNAKNTVYLQMNSLKPEDTGVYYCAAVTTVYTKYGYWGQGTQVTVSS”: the “polyreactivity (PSR sort gate)” value is on record as “high polyreactivity”.

“QVQLVESGGGLVQAGGSLRLSCAASGLTFTSYPMVWYRQAPGKERELVAAIDWSGGRTYYADSVKGRFTISRDNAKNTVYLQMNSLKPEDTAVYYCAAYSRNRALRFNYWGQGTQVTVSS”: the “polyreactivity (PSR sort gate)” value is “high polyreactivity”.

For “QVQLVESGGGLVQAGGSLRLSCAASGLTFTTYAMGWYRQAPWKERELVAAISRSGGRTYYADSVKGRFTISRDNAKNTVYLHMNSLKPEDTAVYYCNVKGHVLEYYWGQGTQVTVSS”, the “polyreactivity (PSR sort gate)” value is on record as “high polyreactivity”.

For the sequence “QVQLVESGGGLVQAGGSLRLSCAASGLTFTYYAMGWYRQSPGKASEFVAAISSSGSDTYYADSVKGRFTISRDNAKNTVYLQMTSQKPEDTAVYYCAAVLTGLSPDFEYEYWGQGTQVTVSS”, the “polyreactivity (PSR sort gate)” value is “low polyreactivity”.

For the sequence “QVQLVESGGGLVQAGGSLRLSCAASGLTFVAYAMGWYRQAPGKERELVAAITRRGGSTYYADSVTGRFTISRDNAKNTVYLQMNSLKPEDTAVYYCAAEGSYSRNPGFDYWGQGTQVTVSS”, the “polyreactivity (PSR sort gate)” value is reported as “high polyreactivity”.

Take “QVQLVESGGGLVQAGGSLRLSCAASGLTFVDNALGWYRQAPGKDRELVAAISYNGGTTYYADSVKGRFTISRDNAKNTVYLQIISLKPEDTAVFYCAADISVGRYGDMDYWGQGTQVTVSS”: the “polyreactivity (PSR sort gate)” value was “low polyreactivity”.

“QVQLVESGGGLVQAGGSLRLSCAASGLTFVKNVMGWYRQAPGKERELVAAISRRGGSTYYADSVKGRFTISRDNAKNTVYLQMNSLKPEDTAVYSCNAVLNHLSYIYPAVGYWGQGTQVTVSS”: the “polyreactivity (PSR sort gate)” value is “high polyreactivity”.

On to “QVQLVESGGGLVQAGGSLRLSCAASGLTFVQYAMGWYRQAPGKERELVATISKSGGFTYYADSVKGRFTISRDNATNTVYLQMNSLKPEDTAVYYCAAAWYYSSRGFHASWGHDYWGQGTQVTVSS”, for which the “polyreactivity (PSR sort gate)” value is on record as “low polyreactivity”.

Regarding “QVQLVESGGGLVQAGGSLRLSCAASGLTFVRYAMGWYRQAPGKERELVAVISYSGARTYYADSVKGRFTISRDNAKNTVYLQMNSLKPEDTAVYYCAARQYTTGKYDSWGQGTQVTVSS”, the “polyreactivity (PSR sort gate)” value is “high polyreactivity”.

Regarding “QVQLVESGGGLVQAGGSLRLSCAASGLTFVYYAMGWYRQAPGKERELVAVISSSGGSTYYADSVKGRFTISRDNAKNTVYLQMNSLKPEDTAVYYCAAPRQVYYQTDNDYWGQGTQVTVSS”, the “polyreactivity (PSR sort gate)” value is recorded as “high polyreactivity”.

Take “QVQLVESGGGLVQAGGSLRLSCAASGLTFVYYTRGWYRQAPGKERELVATITFTGGNTYYADSVKGRFTISRDNAKNTVYLQMNCLKPEDTAVYYCAKDSGPYKAEYDYGGQGTQVTVSS”: the “polyreactivity (PSR sort gate)” value is given as “low polyreactivity”.

As to “QVQLVESGGGLVQAGGSLRLSCAASGLTFWEYAMGWYRQAPGKERELVAAITWGGNTYYADSVKGRFTISRDNAKNTVYLQMNSLKPEDTAVYYCAARGYYLTGGFRRYYYWGQGTQVTVSS”, the “polyreactivity (PSR sort gate)” value is reported as “high polyreactivity”.
